From article PMC8610599

How the values were obtained:
Test in all cases: BLI
PGDM1400 = details: parent: est. 0.40; read off a plot
VRC01 = details: parent: est. 0.38; read off a plot
PGT151 = details: parent: est. 1.6; read off a plot
PGT121 = details: parent: est. 0.20; read off a plot

Substance	response (AUC (2G12 normalized)) (PGDM1400)	response (AUC (2G12 normalized)) (VRC01)	response (AUC (2G12 normalized)) (PGT151)	response (AUC (2G12 normalized)) (PGT121)
LAI SOSIP.664 trimer R585F	0.35	0.4	1.5	0.15
LAI SOSIP.664 trimer Q567R	0.3	0.42	1.6	0.22
LAI SOSIP.664 trimer Q590A	0.35	0.62	1.5	0.18
LAI SOSIP.664 trimer R585F; Q567R	0.35	0.4	1.5	0.17
LAI SOSIP.664 trimer Q590A; S164G	0.2	0.7	1.4	0.17
LAI SOSIP.664 trimer F53V; Q567R	0.35	0.4	1.5	0.22
LAI SOSIP.664 trimer F53V	0.33	0.45	1.5	0.18
LAI SOSIP.664 trimer Y586W; Q567R	0.3	0.55	1.5	0.2
LAI SOSIP.664 trimer S164G	0.25	0.47	1.5	0.22
LAI SOSIP.664 trimer Y586W	0.42	0.88	1.3	0.18
